In patent US6825005B2, “Methods and reagents to regulate apoptosis” (President and Fellows of Harvard College, priority 2000, dated 2004):
Values belong to the molecule of their own block, whether it stands above or below them.

Columns and labels:
[1] = target: T1, mtHsp70 (Homo sapiens, UniProt P38646); test: Coimmunoprecipitation-immunoblot with mtHsp70; format: binding; details: endogenous proteins, U2OS cells
T1 construct: immunoprecipitate endogenous hTid-1L and hTid-1S in complex with mtHsp70 from human U2OS cells; endogenous in cells
Experimental: Immunoprecipitation. One 10-cm Plate of SAOS-2 Cells was Trypsinized, Washed in PBS, and lysed in 1% NP40/150 mM NaCl/50 mM Tris HCl, pH 8.0/1 μg/ml each aprotinin and leupeptin/0.01% PMSF on ice. The sample was split into four fractions and incubated for 1 hour with either anti-hTid-1, anti-mtHsp70, or anti-Hsc70 mAbs. Immune complexes were collected on protein G agarose beads (GIBCO) and washed three times in 0.1% NP40 lysis buffer. Samples were then separated by SDS/PAGE, transferred to poly(vinylidene difluoride) membrane, and probed with either anti-mtHsp70, anti-Hsc70, or anti-hTid-1 mAbs. Proteins were visualized by ECL (Amersham Pharmacia) by using x-ray film.

[2] = test system: cytochrome c release from mitochondria; test: Cytochrome c release assay, immunoblot of cytoplasmic extracts of U2OS cells treated with TNF; format: cell-based, human; details: inducible U2OS lines, TNF treatment
Experimental: For cytochrome c release assays, U2OS cells were induced with muristerone for 24 hours and treated with 10 ng/ml TNF plus 30 μg/ml cycloheximide for 4.5 hours. Cells were then trypsinized, resuspended in sucrose buffer, homogenized in a Teflon tissue homogenizer, and centrifuged at 10,000×g for 10 minutes as described above. Postmitochondrial supernatant (100 μg of protein) was then analyzed by Western blot analysis for the presence of cytoplasmic cytochrome c. Cytochrome c levels were quantitated by using NIH IMAGE software.

[3] = test system: U2OS cells; test: Apoptosis assay, Hoechst-stained apoptotic nuclei counted in inducible U2OS cells; format: cell-based, human; details: cell line expressing the protein, treated with MMC or TNF-alpha
Experimental: Cell Lines and Reagents. U20S Cells were Cultured in DMEM Containing 10% Fetal Calf serum supplemented with 50 units/ml penicillin and 50 μg/ml streptomycin. Inducible hTid-1L, hTid-1S, H121QL, and H121QS were expressed in U20S cells from a plasmid containing a muristerone-inducible promoter (Invitrogen). Inducible cells lines were cultured under constant selection with 50 μg/ml Zeocin (Invitrogen) and 300 μg/ml G418. Gene expression was induced with 1 μM muristerone (Invitrogen) for 24 hours. SAOS-2 cells were cultured in DMEM containing 15% fetal calf serum and 50 units/ml penicillin and 50 μg/ml streptomycin.
Apoptosis Assays. Inducible U2OS Cells were Induced with 1 μM Muristerone for 24 hours, or went uninduced and were treated with either the indicated concentration of mitomycin c (Sigma) for 24 hours or the indicated concentration of TNF plus 30 μg/ml cycloheximide. Cells were fixed by exposure to methanol vapor for 10 minutes followed by immersion in methanol for at least 10 minutes. Cells were stained with 1 μg/ml Hoechst 33258 and 0.1% lowfat milk (Carnation) for 7 minutes and rinsed in water. Apoptotic nuclei were counted by using fluorescence microscopy. For transient-transfection experiments, U2OS cells were transfected by the calcium phosphate technique by using BES-buffered saline. […] Cells expressing green fluorescent protein were counted and scored for apoptotic nuclei.

[4] = test system: caspase 3; test: Pro-caspase 3 cleavage and activation, immunoblot and fluorogenic activity assay, U2OS cells treated with TNF; format: cell-based, human; details: inducible U2OS lines, TNF treatment
Experimental: Caspase Activation and Cytochrome c Release Assays. U2OS Cells were Induced for 24 hours with 1 μM muristerone and treated for the indicated time with 10 ng/ml TNF plus 30 μg/ml cycloheximide. Cells were trypsinized, washed in PBS, and resuspended in lysis buffer (1% NP40/50 mM Tris HCl/150 mM NaCl, pH 8.0/1 μg/ml each aprotinin and leupeptin/0.01% PMSF), and protein concentration was analyzed by using the Bradford method (Bio-Rad). Sixty micrograms of total cell lysate was then analyzed by Western blot analysis using mAb specific for pro-caspase 3 and pro-caspase 8.
Caspase activity was measured by using fluorescent caspase 8 and caspase 3 activity assays (CLONTECH). Inducible U20S cells were induced with muristerone for 24 hours and treated with 10 ng/ml TNF plus 30 μg/ml cycloheximide for 4.5 hours. Cells were trypsinized, combined with apoptotic cells in the tissue-culture media, counted, and assayed for caspase activity by the manufacturer's protocol on a fluorescent plate reader (excitiation 380 mn, emission 530 nm). For caspase 8 activity, 1×10^6 cells of each line were used, and for caspase 3 activity, 3.5×10^5 cells of each line were used.

T1 sequence (P38646 47-679): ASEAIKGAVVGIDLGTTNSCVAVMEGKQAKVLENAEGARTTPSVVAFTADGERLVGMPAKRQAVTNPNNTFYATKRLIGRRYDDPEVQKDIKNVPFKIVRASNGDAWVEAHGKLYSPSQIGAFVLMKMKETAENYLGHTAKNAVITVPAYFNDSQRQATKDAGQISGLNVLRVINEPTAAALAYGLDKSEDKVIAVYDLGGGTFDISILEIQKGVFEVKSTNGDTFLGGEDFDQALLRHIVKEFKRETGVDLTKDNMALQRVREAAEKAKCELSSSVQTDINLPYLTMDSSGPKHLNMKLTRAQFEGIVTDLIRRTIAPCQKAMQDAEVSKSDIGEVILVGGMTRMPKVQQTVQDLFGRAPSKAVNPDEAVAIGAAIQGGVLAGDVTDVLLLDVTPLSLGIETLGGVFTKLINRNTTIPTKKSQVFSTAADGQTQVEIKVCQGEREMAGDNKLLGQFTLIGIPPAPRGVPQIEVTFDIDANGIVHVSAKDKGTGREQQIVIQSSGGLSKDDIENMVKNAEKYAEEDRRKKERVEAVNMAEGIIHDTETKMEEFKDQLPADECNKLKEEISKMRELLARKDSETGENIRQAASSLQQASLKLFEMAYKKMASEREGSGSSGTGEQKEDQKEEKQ

Interaction with mtHsp70 (coimmunoprecipitation) [1]: interact specifically
B1: hTid-1L: 43 kDa mitochondrial matrix splice variant encoded by human TID1, SEQ ID NO: 8; proapoptotic (protein, listed as Homo sapiens)
chain: MAARCSTRWLLVVVGTPRLPAISGRGARPPREGVVGAWLSRKLSVPAFASSLTSCGPRALLTLRPGVSLTGTKHNPFICTASFHTSAPLAKEDYYQILGVPRNASQKEIKKAYYQLAKKYHPDTNKDDPKAKEKFSQLAEAYEVLSDEVKRKQYDAYGSAGFDPGASGSQHSYWKGGPTVDPEELFRKIFGEFSSSSFGDFQTVFDQPQEYFMELTFNQAAKGVNKEFTVNIMDTCERCNGKGNEPGTKVQHCHYCGGSGMETINTGPFVMRSTCRRCGGRGSIIISPCVVCRGAGQAKQKKRVMIPVPAGVEDGQTVRMPVGKREIFITFRVQKSPVFRRDGADIHSDLFISIAQALLGGTARAQGLYETINVTIPPGTQTDQKIRMGGKGIPRINSYGYGDHYIHIKIRVPKRLTSRQQSLILSYAEDETDVEGTVNGVTLTSSGGSTMDSSAGSKARREAGEDEEGFLSKLKKMFTS
Cytochrome c released from mitochondria relative to control cells [2]: more cytochrome c is released
Levels of apoptosis relative to control cells [3]: markedly increased levels of apoptosis
Cleavage and activation of pro-caspase 3 relative to control cells [4]: more efficiently

Interaction with mtHsp70 (coimmunoprecipitation) [1]: interact specifically
B2: hTid-1S: 40 kDa mitochondrial matrix splice variant encoded by human TID1, SEQ ID NO: 9; antiapoptotic (protein, listed as Homo sapiens)
chain: MAARCSTRWLLVVVGTPRLPAISGRGARPPREGVVGAWLSRKLSVPAFASSLTSCGPRALLTLRPGVSLTGTKHNPFICTASFHTSAPLAKEDYYQILGVPRNASQKEIKKAYYQLAKKYHPDTNKDDPKAKEKFSQLAEAYEVLSDEVKRKQYDAYGSAGFDPGASGSQHSYWKGGPTVDPEELFRKIFGEFSSSSFGDFQTVFDQPQEYFMELTFNQAAKGVNKEFTVNIMDTCERCNGKGNEPGTKVQHCHYCGGSGMETINTGPFVMRSTCRRCGGRGSIIISPCVVCRGAGQAKQKKRVMIPVPAGVEDGQTVRMPVGKREIFITFRVQKSPVFRRDGADIHSDLFISIAQALLGGTARAQGLYETINVTIPPGTQTDQKIRMGGKGIPRINSYGYGDHYIHIKIRVPKRLTSRQQSLILSYAEDETDVEGTVNGVTLTSSGKRSTGN
Cytochrome c released from mitochondria relative to control cells [2]: release less cytochrome c
Levels of apoptosis relative to control cells [3]: decreased levels of apoptosis
Cleavage and activation of pro-caspase 3 relative to control cells [4]: decreased cleavage and activation
